Experimental data published in EP1034789A1.

Biological target: human MIP-1α (human) (UniProt P10147)
Assay: 125I-MIP-1α bound to human monocytic cells, Exp. 1, 200X molar excess M-T1

Chain of UniProt P10147 (P10147 24-92 limits assumed): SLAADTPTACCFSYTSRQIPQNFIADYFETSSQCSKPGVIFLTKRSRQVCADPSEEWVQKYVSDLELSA

## myxoma T1 protein (type-2 CBP)
  Surface Bound MIP-1α: 978 cpm
